Measurements reported in the supplement of paper PMC10065799, “High-throughput profiling of sequence recognition by tyrosine kinases and SH2 domains using bacterial peptide display” (eLife, 2023).
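Also: 11-residue human phosphosite peptides and single-mutation variants displayed on the E. coli surface, counted by deep sequencing, each peptide's frequency after selection divided by its frequency in the unselected input library; frequency after pTyr selection over input frequency; kinase dosed for 20-30% of maximal phosphorylation in three min.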

The sequences below were run against Fes (UniProt P07332) (assay: phosphorylation enrichment, bacterial display (enrichment ratio); higher = better substrate or ligand; peptides without Tyr show the background).
Sequence of Fes (P07332 whole entry, looked up): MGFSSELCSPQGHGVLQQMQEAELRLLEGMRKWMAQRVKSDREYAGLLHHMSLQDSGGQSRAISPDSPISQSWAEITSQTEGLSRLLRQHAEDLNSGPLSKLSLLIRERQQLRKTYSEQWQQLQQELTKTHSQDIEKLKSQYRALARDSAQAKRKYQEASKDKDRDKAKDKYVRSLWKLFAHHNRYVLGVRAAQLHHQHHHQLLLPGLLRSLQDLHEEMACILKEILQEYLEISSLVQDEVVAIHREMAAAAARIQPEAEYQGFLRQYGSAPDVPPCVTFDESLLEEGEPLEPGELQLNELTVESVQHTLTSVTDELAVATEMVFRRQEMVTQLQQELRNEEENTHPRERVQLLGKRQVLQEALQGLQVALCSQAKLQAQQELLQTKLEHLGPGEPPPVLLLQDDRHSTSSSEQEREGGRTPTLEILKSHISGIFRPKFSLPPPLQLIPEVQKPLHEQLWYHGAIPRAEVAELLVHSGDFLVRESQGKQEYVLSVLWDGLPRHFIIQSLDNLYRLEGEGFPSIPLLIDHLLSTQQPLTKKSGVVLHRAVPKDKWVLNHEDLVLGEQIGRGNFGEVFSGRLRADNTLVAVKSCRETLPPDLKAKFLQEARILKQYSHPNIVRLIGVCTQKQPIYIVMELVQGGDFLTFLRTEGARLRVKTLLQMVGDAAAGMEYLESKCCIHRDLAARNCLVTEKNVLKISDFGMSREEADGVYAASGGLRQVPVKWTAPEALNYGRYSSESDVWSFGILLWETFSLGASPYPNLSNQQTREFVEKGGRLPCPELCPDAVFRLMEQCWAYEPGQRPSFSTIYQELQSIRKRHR
Work on DRLASYRDKVR [KRT12_Y139_L140R] yielded a phosphorylation enrichment of 0.447.
For ANYTEYVATSW [CDKL5_Y171_R175S], the phosphorylation enrichment was 0.867.
VVKTVYSLQPS [KNSTRN_Y87_P92S] was tested, and the phosphorylation enrichment was 0.848.
For QERPEYWDQET [HLA-A_Y83_G80R], the phosphorylation enrichment was 1.58.
Sequence HLEKKYVHRDS [CSF1R_Y708_R710H] has a phosphorylation enrichment of 0.612.
RQSRNYLGGFA [SYK_Y47] was tested, and the phosphorylation enrichment was 0.562.
IDGLEYLHSQS [STK11_Y166_G171S] gave a phosphorylation enrichment of 1.07.
With ITVCDYTNPCP [MYD88_Y276_T281P] the phosphorylation enrichment was 0.829.
For STEPQYQPGEN [SRC_Y530], the phosphorylation enrichment was 0.817.
SKHHLYSDLQT [PTCHD1_Y84_R82H] was tested, and the phosphorylation enrichment was 0.786.
KLIETYSSKNY [PLP1_Y50_F51S] showed a phosphorylation enrichment of 0.838.
TLSGIYQFSIA [FOXL2_Y81_I84S_YF] gave a phosphorylation enrichment of 1.04.
Work on REETTYLPLTS [ICAM3_Y527_S525T] yielded a phosphorylation enrichment of 1.05.
APSHAYHGGVL [ANO1_Y981] gave a phosphorylation enrichment of 0.494.
Sequence QGGRCYMMIVD [GAA_Y438_R437C] has a phosphorylation enrichment of 2.69.
NLPGGYSGSVK [MCPH1_Y606] gave a phosphorylation enrichment of 0.652.
In the case of WRPFGYPHRRR [BCS1L_Y181_R183H], the phosphorylation enrichment is reported as 0.511.
Sequence KDDEKYLDVSR [MTM1_Y260_I264S] has a phosphorylation enrichment of 1.09.
Work on AVLQLYIFVAT [CFTR_Y1014_P1013L] yielded a phosphorylation enrichment of 1.37.
GPRKAYELSQR [SETX_Y1297] gave a phosphorylation enrichment of 0.539.
NDENIYKGLPD [VAV3_Y141_D139N] showed a phosphorylation enrichment of 1.2.
In the case of RESVSYLFSHV [PRPS1_Y311_G306R], the phosphorylation enrichment is reported as 1.12.
For EFSNQYKATIG [RAB7A_Y37_K32E], the phosphorylation enrichment was 0.559.
ACDALYPPGPP gave a phosphorylation enrichment of 0.861.
For KSLFHYRQYSA [CPS1_Y1491], the phosphorylation enrichment was 0.808.
VEDQYYRVDCY [FHL1_Y208_C209R] gave a phosphorylation enrichment of 1.46.
In the case of TLARLYHRDST [LRIG1_Y1029_P1031R], the phosphorylation enrichment is reported as 0.844.
CTTIHYNDMCN [TP53_Y234_Y236D] showed a phosphorylation enrichment of 0.85.
For PPDGEYFTLQI [TP53_Y327_L323P], the phosphorylation enrichment was 1.74.

What follows are sequences tested on c-Abl (mouse) in the same assay as above.
In the case of DRLASYRDKVR [KRT12_Y139_L140R], the phosphorylation enrichment is reported as 0.442.
With ANYTEYVATSW [CDKL5_Y171_R175S] the phosphorylation enrichment was 0.812.
VVKTVYSLQPS [KNSTRN_Y87_P92S] showed a phosphorylation enrichment of 0.716.
For QERPEYWDQET [HLA-A_Y83_G80R], the phosphorylation enrichment was 1.14.
HLEKKYVHRDS [CSF1R_Y708_R710H] was tested, and the phosphorylation enrichment was 0.276.
For RQSRNYLGGFA [SYK_Y47], the phosphorylation enrichment was 0.684.
IDGLEYLHSQS [STK11_Y166_G171S] showed a phosphorylation enrichment of 0.616.
For ITVCDYTNPCP [MYD88_Y276_T281P], the phosphorylation enrichment was 0.551.
STEPQYQPGEN [SRC_Y530] was tested, and the phosphorylation enrichment was 0.564.
For SKHHLYSDLQT [PTCHD1_Y84_R82H], the phosphorylation enrichment was 0.51.
For KLIETYSSKNY [PLP1_Y50_F51S], the phosphorylation enrichment was 0.591.
Work on TLSGIYQFSIA [FOXL2_Y81_I84S_YF] yielded a phosphorylation enrichment of 1.27.
In the case of REETTYLPLTS [ICAM3_Y527_S525T], the phosphorylation enrichment is reported as 0.781.
Sequence APSHAYHGGVL [ANO1_Y981] has a phosphorylation enrichment of 0.505.
QGGRCYMMIVD [GAA_Y438_R437C] was tested, and the phosphorylation enrichment was 1.81.
In the case of NLPGGYSGSVK [MCPH1_Y606], the phosphorylation enrichment is reported as 0.747.
WRPFGYPHRRR [BCS1L_Y181_R183H] gave a phosphorylation enrichment of 0.5.
In the case of KDDEKYLDVSR [MTM1_Y260_I264S], the phosphorylation enrichment is reported as 0.824.
AVLQLYIFVAT [CFTR_Y1014_P1013L] showed a phosphorylation enrichment of 0.837.
For GPRKAYELSQR [SETX_Y1297], the phosphorylation enrichment was 0.492.
With NDENIYKGLPD [VAV3_Y141_D139N] the phosphorylation enrichment was 1.08.
Work on RESVSYLFSHV [PRPS1_Y311_G306R] yielded a phosphorylation enrichment of 1.06.
Work on EFSNQYKATIG [RAB7A_Y37_K32E] yielded a phosphorylation enrichment of 0.524.
In the case of ACDALYPPGPP, the phosphorylation enrichment is reported as 0.566.
In the case of KSLFHYRQYSA [CPS1_Y1491], the phosphorylation enrichment is reported as 0.567.
VEDQYYRVDCY [FHL1_Y208_C209R] gave a phosphorylation enrichment of 0.958.
TLARLYHRDST [LRIG1_Y1029_P1031R] gave a phosphorylation enrichment of 0.761.
In the case of CTTIHYNDMCN [TP53_Y234_Y236D], the phosphorylation enrichment is reported as 0.589.
Sequence PPDGEYFTLQI [TP53_Y327_L323P] has a phosphorylation enrichment of 2.33.

Each sequence was assayed on c-Src in the same assay as above.
For DRLASYRDKVR [KRT12_Y139_L140R], the phosphorylation enrichment was 0.347.
For ANYTEYVATSW [CDKL5_Y171_R175S], the phosphorylation enrichment was 0.763.
VVKTVYSLQPS [KNSTRN_Y87_P92S] was tested, and the phosphorylation enrichment was 2.05.
For QERPEYWDQET [HLA-A_Y83_G80R], the phosphorylation enrichment was 0.554.
HLEKKYVHRDS [CSF1R_Y708_R710H] gave a phosphorylation enrichment of 0.34.
For RQSRNYLGGFA [SYK_Y47], the phosphorylation enrichment was 0.69.
IDGLEYLHSQS [STK11_Y166_G171S] was tested, and the phosphorylation enrichment was 0.357.
Work on ITVCDYTNPCP [MYD88_Y276_T281P] yielded a phosphorylation enrichment of 0.943.
In the case of STEPQYQPGEN [SRC_Y530], the phosphorylation enrichment is reported as 0.38.
With SKHHLYSDLQT [PTCHD1_Y84_R82H] the phosphorylation enrichment was 0.634.
For KLIETYSSKNY [PLP1_Y50_F51S], the phosphorylation enrichment was 0.543.
For TLSGIYQFSIA [FOXL2_Y81_I84S_YF], the phosphorylation enrichment was 5.19.
In the case of REETTYLPLTS [ICAM3_Y527_S525T], the phosphorylation enrichment is reported as 1.61.
APSHAYHGGVL [ANO1_Y981] gave a phosphorylation enrichment of 0.475.
QGGRCYMMIVD [GAA_Y438_R437C] was tested, and the phosphorylation enrichment was 1.03.
In the case of NLPGGYSGSVK [MCPH1_Y606], the phosphorylation enrichment is reported as 0.46.
WRPFGYPHRRR [BCS1L_Y181_R183H] showed a phosphorylation enrichment of 0.473.
With KDDEKYLDVSR [MTM1_Y260_I264S] the phosphorylation enrichment was 0.433.
AVLQLYIFVAT [CFTR_Y1014_P1013L] was tested, and the phosphorylation enrichment was 0.567.
GPRKAYELSQR [SETX_Y1297] gave a phosphorylation enrichment of 0.412.
NDENIYKGLPD [VAV3_Y141_D139N] gave a phosphorylation enrichment of 1.78.
With RESVSYLFSHV [PRPS1_Y311_G306R] the phosphorylation enrichment was 0.742.
Sequence EFSNQYKATIG [RAB7A_Y37_K32E] has a phosphorylation enrichment of 0.311.
In the case of ACDALYPPGPP, the phosphorylation enrichment is reported as 0.444.
In the case of KSLFHYRQYSA [CPS1_Y1491], the phosphorylation enrichment is reported as 0.493.
Sequence VEDQYYRVDCY [FHL1_Y208_C209R] has a phosphorylation enrichment of 1.55.
Sequence TLARLYHRDST [LRIG1_Y1029_P1031R] has a phosphorylation enrichment of 0.449.
CTTIHYNDMCN [TP53_Y234_Y236D] gave a phosphorylation enrichment of 0.492.
Work on PPDGEYFTLQI [TP53_Y327_L323P] yielded a phosphorylation enrichment of 5.4.

The sequences below were run against EPHB1 (UniProt P54762) in the same assay as above.
Sequence of EPHB1 (P54762 whole entry, looked up): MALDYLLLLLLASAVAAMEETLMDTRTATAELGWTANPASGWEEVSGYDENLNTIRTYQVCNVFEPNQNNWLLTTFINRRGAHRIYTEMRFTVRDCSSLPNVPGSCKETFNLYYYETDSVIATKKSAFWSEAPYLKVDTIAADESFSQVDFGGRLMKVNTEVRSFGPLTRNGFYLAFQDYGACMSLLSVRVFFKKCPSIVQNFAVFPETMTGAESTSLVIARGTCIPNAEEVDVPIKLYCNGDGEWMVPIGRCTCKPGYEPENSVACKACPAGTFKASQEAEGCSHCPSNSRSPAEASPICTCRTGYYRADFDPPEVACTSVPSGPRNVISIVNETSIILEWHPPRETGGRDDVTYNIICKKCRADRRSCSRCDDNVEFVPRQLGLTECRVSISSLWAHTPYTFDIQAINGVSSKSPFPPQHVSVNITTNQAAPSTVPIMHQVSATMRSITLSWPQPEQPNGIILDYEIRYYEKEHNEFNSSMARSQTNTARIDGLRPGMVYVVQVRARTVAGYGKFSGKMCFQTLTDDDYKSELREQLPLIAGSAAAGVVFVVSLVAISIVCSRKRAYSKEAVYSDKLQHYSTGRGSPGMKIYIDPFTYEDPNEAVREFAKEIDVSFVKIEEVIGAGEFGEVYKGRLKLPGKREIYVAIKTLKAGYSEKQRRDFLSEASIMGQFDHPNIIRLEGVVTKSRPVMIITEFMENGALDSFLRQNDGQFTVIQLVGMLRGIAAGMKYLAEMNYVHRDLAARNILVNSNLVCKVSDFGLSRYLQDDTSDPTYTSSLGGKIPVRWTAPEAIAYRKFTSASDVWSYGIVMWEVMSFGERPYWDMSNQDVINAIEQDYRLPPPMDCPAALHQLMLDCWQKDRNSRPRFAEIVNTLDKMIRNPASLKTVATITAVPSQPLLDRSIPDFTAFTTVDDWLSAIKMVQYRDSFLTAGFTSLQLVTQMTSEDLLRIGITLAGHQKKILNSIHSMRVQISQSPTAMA
Work on DRLASYRDKVR [KRT12_Y139_L140R] yielded a phosphorylation enrichment of 0.294.
In the case of ANYTEYVATSW [CDKL5_Y171_R175S], the phosphorylation enrichment is reported as 7.89.
For VVKTVYSLQPS [KNSTRN_Y87_P92S], the phosphorylation enrichment was 0.671.
Sequence QERPEYWDQET [HLA-A_Y83_G80R] has a phosphorylation enrichment of 0.693.
Work on HLEKKYVHRDS [CSF1R_Y708_R710H] yielded a phosphorylation enrichment of 0.471.
RQSRNYLGGFA [SYK_Y47] gave a phosphorylation enrichment of 0.316.
Work on IDGLEYLHSQS [STK11_Y166_G171S] yielded a phosphorylation enrichment of 0.503.
Sequence ITVCDYTNPCP [MYD88_Y276_T281P] has a phosphorylation enrichment of 0.561.
STEPQYQPGEN [SRC_Y530] was tested, and the phosphorylation enrichment was 0.516.
Sequence SKHHLYSDLQT [PTCHD1_Y84_R82H] has a phosphorylation enrichment of 0.462.
In the case of KLIETYSSKNY [PLP1_Y50_F51S], the phosphorylation enrichment is reported as 0.684.
For TLSGIYQFSIA [FOXL2_Y81_I84S_YF], the phosphorylation enrichment was 1.63.
In the case of REETTYLPLTS [ICAM3_Y527_S525T], the phosphorylation enrichment is reported as 0.656.
For APSHAYHGGVL [ANO1_Y981], the phosphorylation enrichment was 0.371.
Sequence QGGRCYMMIVD [GAA_Y438_R437C] has a phosphorylation enrichment of 1.35.
NLPGGYSGSVK [MCPH1_Y606] was tested, and the phosphorylation enrichment was 0.407.
Work on WRPFGYPHRRR [BCS1L_Y181_R183H] yielded a phosphorylation enrichment of 0.534.
In the case of KDDEKYLDVSR [MTM1_Y260_I264S], the phosphorylation enrichment is reported as 0.521.
AVLQLYIFVAT [CFTR_Y1014_P1013L] was tested, and the phosphorylation enrichment was 0.766.
GPRKAYELSQR [SETX_Y1297] showed a phosphorylation enrichment of 0.343.
NDENIYKGLPD [VAV3_Y141_D139N] gave a phosphorylation enrichment of 0.564.
For RESVSYLFSHV [PRPS1_Y311_G306R], the phosphorylation enrichment was 0.588.
Sequence EFSNQYKATIG [RAB7A_Y37_K32E] has a phosphorylation enrichment of 0.411.
ACDALYPPGPP was tested, and the phosphorylation enrichment was 0.485.
Sequence KSLFHYRQYSA [CPS1_Y1491] has a phosphorylation enrichment of 0.527.
VEDQYYRVDCY [FHL1_Y208_C209R] was tested, and the phosphorylation enrichment was 0.711.
TLARLYHRDST [LRIG1_Y1029_P1031R] showed a phosphorylation enrichment of 0.501.
Sequence CTTIHYNDMCN [TP53_Y234_Y236D] has a phosphorylation enrichment of 0.451.
PPDGEYFTLQI [TP53_Y327_L323P] was tested, and the phosphorylation enrichment was 1.19.
